Assay results as given in US20230279126A1 (published 2023).
Residue numbers refer to the chain shown, from its start.

B1: hIL23R_VHH13 (VHH)
VHH: QVQLQESGGGSVQAGGSLRLSCAASGYTYCSYDMKWYRQAPGKKREFVSAIDSDGSTSYADSVKGRFTISQDNAKNTVYLQMNSLKPEDTAMYYCKTEGTIPVGVCPNYWGQGTQVTVSS
notes: Phagemid clone with his-tag, periplasmic extract
B2: hIL23R_VHH8 (VHH)
VHH: B1 VHH with G10D, K44E, A50G, T57I, V105A
notes: as for B1
B3: hIL23R_VHH14 (VHH)
VHH: B1 VHH with S11L, A14P, I101V
notes: as for B1
B4: hIL23R_VHH19 (VHH)
VHH: QVQLQESGGGSVQAGGSLRLSCAASGYTSCSYDMSWYRQAPGKKREFVSAIHSDGTTSYADSMKGRFTISQDNAKNTVYLQMNSLKPEDTAMYYCKTDPNYSDHVCPPYWGRGTQVTVSS
notes: as for B1
B5: hIL23R_VHH17 (VHH)
VHH: QVQLQESGGGSVQAGGSLRLSCTASGYTFSTMKYMGWFRQAPGKEREGVAAIWIAAGNTYYADSVKGRFTISQDNTKNTVYLQMNSLKPEDTALYYCAAARYGFVPSTWYLPERYNYWGQGTQVTVSS
notes: as for B1
B6: hIL23R_VHH12 (VHH)
VHH: QVQLQESGGGSVQAGGSLRLSCAASGYTSSSRCMGWFRQAPGKEREGVARIYTPTRTTWYADSVKGRFTISQDNAKNTVYLEMASLKPEDTAKYFCAAGASCAVDLFSYWGQGTQVTVSS
notes: as for B1
B7: hIL23R_VHH15 (VHH)
VHH: QVQLQESGGGSVQAGGSLRLSCAASPGTYTSRYMGWFRQAPGKEREGVATIWPAGGNTVYADSVKGRFTISQDGAKKTVYLQMNSLKPEDTAMYYCAAAKYGGTSLAPYTYNYWGQGTQVTVSS
notes: as for B1

These binders were tested against T1, extracellular domain of human IL23R (hIL23R ECD) (human, UniProt Q5VWK5 24-355) (assay: periplasmic extract ELISA (PE-ELISA) of phage clones, colorimetric).
T1 construct: The immunogen was an ECD-human IgG1 hinge-Fc fusion
T1 sequence: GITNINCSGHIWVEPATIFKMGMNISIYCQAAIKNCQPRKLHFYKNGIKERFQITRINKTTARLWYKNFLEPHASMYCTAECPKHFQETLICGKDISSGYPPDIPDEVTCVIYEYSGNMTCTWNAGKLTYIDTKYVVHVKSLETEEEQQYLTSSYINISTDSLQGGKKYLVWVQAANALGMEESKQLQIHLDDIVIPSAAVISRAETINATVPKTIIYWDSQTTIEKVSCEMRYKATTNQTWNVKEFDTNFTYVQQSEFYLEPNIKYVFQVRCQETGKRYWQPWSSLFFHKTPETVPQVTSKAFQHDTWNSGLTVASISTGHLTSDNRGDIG
Outline: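 After multiple rounds of biopanning on the human or mouse extracellular domain, individual phage clones were screened for selective binding by colorimetric periplasmic extract ELISA in 96-well plates. The library was built from camels given human and then mouse receptor extracellular domain–human IgG1 hinge–Fc fusion proteins. Their blood RNA was transcribed, and the roughly 400 bp VHH fragment was placed in frame with a his-tag in a phagemid in E. coli.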

Binder	binding result
B1	binds
B2	binds
B3	binds
B4	binds
B5	binds
B6	binds
B7	binds
